B1: human factor I (protein)
chain: KVTYTSQEDLVEKKCLAKKYTHLSCDKVFCQPWQRCIEGTCVCKLPYQCPKNGTAVCATNRRSFPTYCQQKSLECLHPGTKFLNNGTCTAEGKFSVSLKHGNTDSEGIVEVKLVDQDKTMFICKSSWSMREANVACLDLGFQQGADTQRRFKLSDLSINSTECLHVHCRGLETSLAECTFTKRRTMGYQDFADVVCYTQKADSPMDDFFQCVNGKYISQMKACDGINDCGDQSDELCCKACQGKGFHCKSGVCIPSQYQCNGEVDCITGEDEVGCAGFASVTQEETEILTADMDAERRRIKSLLPKLSCGVKNRMHIRRKRIVGGKRAQLGDLPWQVAIKDASGITCGGIYIGGCWILTAAHCLRASKTHRYQIWTTVVDWIHPDLKRIVIEYVDRIIFHENYNAGTYQNDIALIEMKKDGNKKDCELPRSIPACVPWSPYLFQPNDTCIVSGWGREKDNERVFSLQWGEVKLISNCSKFYGNRFYEKEMECAGTYDGSIDACKGDSGGPLVCMDANNVTYVWGVVSWGENCGKPEFPGVYTKVANYFDWISYHVGRPFISQYNV
Sequence of hybrid protein DAF-MCP (chain, as listed by the source): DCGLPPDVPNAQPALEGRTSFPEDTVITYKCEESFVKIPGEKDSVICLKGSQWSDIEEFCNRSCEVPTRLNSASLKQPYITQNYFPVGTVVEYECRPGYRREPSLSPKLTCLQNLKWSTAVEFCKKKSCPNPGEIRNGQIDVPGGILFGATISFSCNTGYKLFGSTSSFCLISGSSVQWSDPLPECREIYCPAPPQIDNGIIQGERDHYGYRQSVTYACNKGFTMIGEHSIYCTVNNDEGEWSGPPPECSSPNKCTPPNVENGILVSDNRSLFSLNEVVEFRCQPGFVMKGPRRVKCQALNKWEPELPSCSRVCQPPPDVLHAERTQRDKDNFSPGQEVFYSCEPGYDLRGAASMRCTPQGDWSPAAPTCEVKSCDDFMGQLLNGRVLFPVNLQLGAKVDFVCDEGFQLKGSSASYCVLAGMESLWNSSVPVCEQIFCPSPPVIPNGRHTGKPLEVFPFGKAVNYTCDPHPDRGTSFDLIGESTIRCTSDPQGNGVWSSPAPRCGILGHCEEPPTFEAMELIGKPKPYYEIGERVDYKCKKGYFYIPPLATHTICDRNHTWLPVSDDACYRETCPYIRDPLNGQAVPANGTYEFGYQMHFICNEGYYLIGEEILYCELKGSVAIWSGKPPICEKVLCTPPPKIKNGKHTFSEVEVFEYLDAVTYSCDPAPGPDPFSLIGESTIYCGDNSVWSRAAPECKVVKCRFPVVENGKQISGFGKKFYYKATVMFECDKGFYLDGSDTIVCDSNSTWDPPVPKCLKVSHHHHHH
Sequence of hybrid protein DAF-CR1B (chain, as listed by the source): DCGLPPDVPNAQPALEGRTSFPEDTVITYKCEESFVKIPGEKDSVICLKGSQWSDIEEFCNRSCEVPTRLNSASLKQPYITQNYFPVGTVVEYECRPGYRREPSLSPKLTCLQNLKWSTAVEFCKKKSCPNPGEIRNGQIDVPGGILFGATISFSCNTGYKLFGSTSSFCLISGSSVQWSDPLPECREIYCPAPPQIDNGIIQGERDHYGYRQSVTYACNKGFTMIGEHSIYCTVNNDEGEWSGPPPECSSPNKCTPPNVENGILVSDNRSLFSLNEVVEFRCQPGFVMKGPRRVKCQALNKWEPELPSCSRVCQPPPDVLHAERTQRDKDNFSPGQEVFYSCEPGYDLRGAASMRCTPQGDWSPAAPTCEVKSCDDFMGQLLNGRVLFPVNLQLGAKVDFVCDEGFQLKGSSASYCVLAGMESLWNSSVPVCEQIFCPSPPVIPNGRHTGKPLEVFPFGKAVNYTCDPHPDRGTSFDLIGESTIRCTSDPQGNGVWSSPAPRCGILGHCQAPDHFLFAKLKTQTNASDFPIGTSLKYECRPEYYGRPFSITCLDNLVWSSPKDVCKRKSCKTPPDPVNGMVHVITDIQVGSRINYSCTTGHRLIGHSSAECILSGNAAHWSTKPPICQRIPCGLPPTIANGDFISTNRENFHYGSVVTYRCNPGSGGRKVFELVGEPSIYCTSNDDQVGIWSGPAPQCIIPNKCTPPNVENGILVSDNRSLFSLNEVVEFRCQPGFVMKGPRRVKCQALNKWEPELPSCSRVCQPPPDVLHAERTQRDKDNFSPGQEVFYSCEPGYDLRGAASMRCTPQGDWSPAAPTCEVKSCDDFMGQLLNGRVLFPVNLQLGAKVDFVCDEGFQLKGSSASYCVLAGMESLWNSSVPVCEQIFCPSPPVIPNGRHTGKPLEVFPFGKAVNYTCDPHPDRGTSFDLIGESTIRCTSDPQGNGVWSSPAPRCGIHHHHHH
In the case of B1, the “cofactor assay: factor I cleavage of C3b, Western blot” value (hybrid protein DAF-CR1B) is reported as “DAF-CR1B acts as cofactor for factor I as shown by the appearance of a band at 29 kDa” and the “cofactor assay: factor I cleavage of C3b, SDS-PAGE and Western blot with anti-human C3 polyclonal antibody” value (hybrid protein DAF-MCP) is reported as “Supernatants with factor I and either DAF-MCP or DAF-CR1BB both exhibited 43 and 40 kDa bands corresponding to formation of iC3b and C3c, respectively”.

— patent US20080188404
